{"source": "patent US20240009137A1", "about": "“ORAL THERAPEUTIC DELIVERY” (ROYAL MELBOURNE INSTITUTE OF TECHNOLOGY, priority 2020, published 2024)", "key": {"[1]": {"assay": "Fluorescence recovery after photobleaching (FRAP), diffusion coefficient", "assay_type": "physicochemical", "description": "FRAP was performed on a Nikon confocal microscope. […] A bleaching and background region of interest (ROI) was used to selectively photobleach an area of the cubic phase and the fluorescence recovery curve was recorded with time. The excitation/emission wavelengths used were 553/627 nm for the octadecyl rhodamine B chloride. […] […] The open source Matlab code frap_analysis_2p5 was used to determine diffusion coefficients μ from FRAP data."}, "chymotrypsin": {"target": "T1, chymotrypsin (Bos taurus, UniProt P00766)", "T1 construct": "purchased Sigma Aldrich (Australia)", "assay": "Enzymatic degradation of insulin by chymotrypsin followed by synchrotron CD (Dichroweb)", "assay_type": "in vitro ADME", "description": "SR-CD measurements were conducted in the 170-350 nm region using the CD beamline of the synchrotron radiation source ASTRID2 at ISA, Centre for Storage Ring Facilities at Aarhus University (Denmark). Suprasil Quartz cells (Hellma GmbH & Co., Germany) of nominal 0.1 mm path length (actual calibrated path lengths=102.3 and […]), requiring an approximately 30 μl sample volume, were used for measurements at 37° C. in a temperature-regulated sample holder. […] The sample measurements were obtained at 1 nm increments in wavelength, 1 sec averaging time and 1 scan for each sample. Data were mildly smoothed with a 5-point moving mean in Matlab. The online service DichroWeb was used for secondary structure content analysis of the CD spectra using the CONTIN routine and the SP175 reference set.\nChymotrypsin, which is typically found in the small intestine, was utilized as a model enzyme."}, "[2]": {"assay": "Release of insulin from bulk cubic phase (A280 of supernatant; Ritger-Peppas and Higuchi fits)", "assay_type": "physicochemical", "description": "This mixture was then injected into a 1.5 mL Eppendorf tube and centrifuged at 1200 RPM for 1 min to achieve a flat surface. The height of this surface was measured to determine the diameter for subsequent surface area calculations. 150 μl of water was added on top of the cubic phase and immediately removed for T=0 time point. 150 μl of supernatant fluid was removed every 30 min over a 12 hour period for analysis and replaced with a further […] of water. A final reading was taken at 22 hour.\nMt, M0, k and n are the released quantity at time t, initial quantity encapsulated, fitting coefficient and fitting exponent, respectively. This allows for the coupling of multiple release mechanisms (e.g., diffusion-controlled, zero-order) where the diffusional exponent n, is indicative of the release mechanism and geometry of the interface and the fitting coefficient k reflects characteristics of both the matrix and the solute.\nwhere Q, C0 and D are the released concentration per unit area, initial concentration per unit volume and the diffusion coefficient, respectively. Diffusion control dictates that the release profile against √t should be linear. […] The determined parameters were compared to those found during FRAP analysis (DFRAP)."}, "[3]": {"settings": "previously provided in the literature; cited from earlier work"}, "[4]": {"settings": "insulin in water 0.2 mg/ml, chymotrypsin 0.02 mg/ml, time 0 min"}, "[5]": {"settings": "insulin in water 0.2 mg/ml, chymotrypsin 0.02 mg/ml, time 2 min"}, "[6]": {"settings": "insulin in water 0.2 mg/ml, chymotrypsin 0.02 mg/ml, time 12 min"}}, "note": "Where “and” joins values, the source holds several entries; their conditions need not be identical. Identical values can stand only once."}
{"substance": "Insulin: human recombinant insulin (Sigma Aldrich); FITC labelled insulin used for FRAP; free or encapsulated in MO or PT cubic phase", "values": [{"measurement": "Diffusion Coefficient", "setting": "[1]; MO QII^D phase at the water interface (DFRAP)", "value": "2.89 ×10^−6 cm^2 s^−1"}, {"measurement": "Diffusion Coefficient", "setting": "[1]; PT QII^D phase at the water interface (DFRAP)", "value": "4.36 ×10^−6 cm^2 s^−1"}, {"measurement": "Diffusion Coefficient", "setting": "[1]; in MO QII^D bulk cubic phase (insulin: FITC labelled, 5 mg/ml)", "value": "2.29 ×10^−6 cm^2 s^−1"}, {"measurement": "Diffusion Coefficient", "setting": "[1]; in PT QII^D bulk cubic phase (insulin: FITC labelled, 5 mg/ml)", "value": "4.17 ×10^−6 cm^2 s^−1"}, {"measurement": "Diffusion Coefficient", "setting": "[1]; in solution (free, FITC labelled insulin)", "value": "6.56 ×10^−6 cm^2 s^−1"}, {"measurement": "Diffusion Coefficient", "setting": "[1]; in solution (free, FITC labelled insulin), listed as insulin", "value": "6.6 ×10^−6 cm^2 s^−1"}, {"measurement": "diffusion coefficient higher at the interface compared to in the bulk", "setting": "[1]; stated for both lipids (MO and PT)", "value": "approximately 15%"}, {"measurement": "far UV CD spectrum, secondary structure", "setting": "chymotrypsin; insulin 0.2 mg/ml encapsulated in PT cubic phase, 30 min after addition of chymotrypsin", "value": "still largely a-helical"}, {"measurement": "far UV CD spectrum, secondary structure", "setting": "chymotrypsin; insulin 0.2 mg/ml in water, 30 min after addition of chymotrypsin", "value": "largely unordered"}, {"measurement": "near-UV CD minimum at 270 nm", "setting": "chymotrypsin; insulin 0.5 mg/ml in MO bulk cubic phase, 132 min after addition of chymotrypsin 0.05 mg/ml", "value": "may still be observed"}, {"measurement": "far UV CD spectrum, secondary structure", "setting": "chymotrypsin; insulin encapsulated in PT cubic phase, 2 hours after addition of chymotrypsin", "value": "retention of a-helical structures"}, {"measurement": "duration of protection against enzymatic degradation after addition of chymotrypsin", "setting": "chymotrypsin; insulin in lipid nanocarrier in the form of a mesophase", "value": "at least 2 hours"}, {"measurement": "time by which the near-UV CD minimum at 270 nm has essentially disappeared", "setting": "chymotrypsin; insulin in solution 0.5 mg/ml, chymotrypsin 0.05 mg/ml", "value": "≤ 9", "unit": "min"}, {"measurement": "Unordered(%)", "setting": "chymotrypsin; [4]", "value": 8, "unit": "%"}, {"measurement": "β-sheet(%)", "setting": "chymotrypsin; [4]", "value": 0, "unit": "%"}, {"measurement": "β-turns(%)", "setting": "chymotrypsin; [4]", "value": 3, "unit": "%"}, {"measurement": "β-sheet(%)", "setting": "chymotrypsin; [5]", "value": 0, "unit": "%"}, {"measurement": "β-turns(%)", "setting": "chymotrypsin; [5]", "value": 9, "unit": "%"}, {"measurement": "β-sheet(%)", "setting": "chymotrypsin; insulin in water 0.2 mg/ml, chymotrypsin 0.02 mg/ml, time 6 min", "value": 2, "unit": "%"}, {"measurement": "Unordered(%)", "setting": "chymotrypsin; [6]", "value": 41, "unit": "%"}, {"measurement": "α-helix(%)", "setting": "chymotrypsin; [6]", "value": "41% and 41.2%"}, {"measurement": "time to complete degradation", "setting": "chymotrypsin; insulin in water, no protective matrix, chymotrypsin added", "value": "less than 35 min"}, {"measurement": "insulin released over the first two hours", "setting": "[2]; from MO bulk cubic phase", "value": "approximately 15%"}, {"measurement": "release over a 24 h period", "setting": "[2]; from MO bulk cubic phase", "value": "approximately 50%"}, {"measurement": "insulin released over the first two hours", "setting": "[2]; from PT bulk cubic phase", "value": "approximately 25%"}, {"measurement": "release over a 24 h period", "setting": "[2]; from PT bulk cubic phase", "value": 60, "unit": "%"}, {"measurement": "insulin released over 2-hour time period", "setting": "[2]; from the cubic phase (lipid not specified)", "value": "approximately 20%"}, {"measurement": "k, fitting coefficient (Ritger-Peppas model)", "setting": "[2]; insulin release from MO", "value": "0.88 ± 0.06"}, {"measurement": "time to 20% release", "setting": "[2]; release from MO bulk cubic phase into aqueous sink", "value": "~4", "unit": "h"}, {"measurement": "time to 20% release", "setting": "[2]; release from PT bulk cubic phase into aqueous sink", "value": "~2", "unit": "h"}, {"measurement": "diffusion coefficient in water", "setting": "[3]", "value": "1.5 ×10^−6 cm^2 s^−1"}]}
